Tests used:
[1] = system: HeLa Kyoto; assay: solubility in G1/S (NP-40 vs SDS abundance) (log2 ratio); higher = more soluble; conditions: cell cycle stage: G1/S
[2] = system: HeLa Kyoto; assay: melting temperature (median over replicates), in situ; higher = more thermally stable
[3] = system: HeLa Kyoto; assay: solubility change mitosis vs G1/S (difference of NP-40 vs SDS log2 ratios) (log2 ratio difference); higher = more soluble in mitosis
[4] = system: HeLa Kyoto; assay: thermal stability score vs G1/S (z-score of summed log2 fold changes over temperatures); higher = more thermally stable than in G1/S
[5] = cell cycle stage: early G1 (4.5 h after nocodazole release)
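Throughout, for melting temperature (median over replicates), in situ: HeLa Kyoto cells synchronized by double thymidine or nocodazole block, proteins quantified by TMT10plex mass spectrometry, three independent biological replicates.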
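Throughout, for solubility change mitosis vs G1/S (difference of NP-40 vs SDS log2 ratios): synchronized HeLa Kyoto cells (double thymidine block for G1/S, nocodazole release for mitosis), protein amounts in NP-40 versus SDS lysates quantified by mass spectrometry, three biological replicates.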
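Throughout, for solubility in G1/S (NP-40 vs SDS abundance): HeLa Kyoto cells arrested at G1/S by double thymidine block, proteins quantified by TMT10plex mass spectrometry in mild NP-40 versus SDS extracts, three biological replicates.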
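Throughout, for thermal stability score vs G1/S (z-score of summed log2 fold changes over temperatures): synchronized HeLa Kyoto cells, proteins quantified by TMT10plex mass spectrometry, three biological replicates, mitosis taken 0.5 h after nocodazole release, G1/S directly after double thymidine block.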

| Sequence | solubility in G1/S (log2) [1] | melting temperature ([2]; cell cycle stage: G1/S) | melting temperature ([2]; cell cycle stage: mitosis) | solubility change mitosis (log2) [3] | thermal stability score [4, 5] | thermal stability score ([4]; cell cycle stage: mitosis) |
| --- | --- | --- | --- | --- | --- | --- |
| MEAFQELRKPSARLECDHCSFRGTDYENVQIHMGTIHPEFCDEMDAGGLGKMIFYQKSAKLFHCHKCFFTSKMYSNVYYHITSKHASPDKWNDKPKNQLNKETDPVKSPPLPEHQKIPCNSAEPKSIPALSMETQKLGSVLSPESPKPTPLTPLEPQKPGSVVSPELQTPLPSPEPSKPASVSSPEPPKSVPVCESQKLAPVPSPEPQKPAPVSPESVKATLSNPKPQKQSHFPETLGPPSASSPESPVLAASPEPWGPSPAASPESRKSARTTSPEPRKPSPSESPEPWKPFPAVSPEPRRPAPAVSPGSWKPGPPGSPRPWKSNPSASSGPWKPAKPAPSVSPGPWKPIPSVSPGPWKPTPSVSSASWKSSSVSPSSWKSPPASPESWKSGPPELRKTAPTLSPEHWKAVPPVSPELRKPGPPLSPEIRSPAGSPELRKPSGSPDLWKLSPDQRKTSPASLDFPESQKSSRGGSPDLWKSSFFIEPQKPVFPETRKPGPSGPSESPKAASDIWKPVLSIDTEPRKPALFPEPAKTAPPASPEARKRALFPEPRKHALFPELPKSALFSESQKAVELGDELQIDAIDDQKCDILVQEELLASPKKLLEDTLFPSSKKLKKDNQESSDAELSSSEYIKTDLDAMDIKGQESSSDQEQVDVESIDFSKENKMDMTSPEQSRNVLQFTEEKEAFISEEEIAKYMKRGKGKYYCKICCCRAMKKGAVLHHLVNKHNVHSPYKCTICGKAFLLESLLKNHVAAHGQSLLKCPRCNFESNFPRGFKKHLTHCQSRHNEEANKKLMEALEPPLEEQQI [CHAMP1] | -0.327 | 48.8 °C | 50.3 °C | 0.221 | 1.41 | 3.68 |
| MAATFFGEVVKAPCRAGTEDEEEEEEGRRETPEDREVRLQLARKREVRLLRRQTKTSLEVSLLEKYPCSKFIIAIGNNAVAFLSSFVMNSGVWEEVGCAKLWNEWCRTTDTTHLSSTEAFCVFYHLKSNPSVFLCQCSCYVAEDQQYQWLEKVFGSCPRKNMQITILTCRHVTDYKTSESTGSLPSPFLRALKTQNFKDSACCPLLEQPNIVHDLPAAVLSYCQVWKIPAILYLCYTDVMKLDLITVEAFKPILSTRSLKGLVKNIPQSTEILKKLMTTNEIQSNIYT [PSMG1] | 0.0966 | 54.7 °C | 54.4 °C | -0.142 | -0.428 | -1.27 |
| MAAETRNVAGAEAPPPQKRYYRQRAHSNPMADHTLRYPVKPEEMDWSELYPEFFAPLTQNQSHDDPKDKKEKRAQAQVEFADIGCGYGGLLVELSPLFPDTLILGLEIRVKVSDYVQDRIRALRAAPAGGFQNIACLRSNAMKHLPNFFYKGQLTKMFFLFPDPHFKRTKHKWRIISPTLLAEYAYVLRVGGLVYTITDVLELHDWMCTHFEEHPLFERVPLEDLSEDPVVGHLGTSTEEGKKVLRNGGKNFPAIFRRIQDPVLQAVTSQTSLPGH [METTL1] | 0.231 | 52.4 °C | 54.7 °C | -0.075 | 0.937 | 2.85 |
| MADSELQLVEQRIRSFPDFPTPGVVFRDISPVLKDPASFRAAIGLLARHLKATHGGRIDYIAGLDSRGFLFGPSLAQELGLGCVLIRKRGKLPGPTLWASYSLEYGKAELEIQKDALEPGQRVVVVDDLLATGGTMNAACELLGRLQAEVLECVSLVELTSLKGREKLAPVPFFSLLQYE [APRT] | 0.361 | 57.1 °C | 55.8 °C | -0.0341 | 3.79 | 2.38 |
| MAVYRAALGASLAAARLLPLGRCSPSPAPRSTLSGAAMEPAPRWLAGLRFDNRALRALPVEAPPPGPEGAPSAPRPVPGACFTRVQPTPLRQPRLVALSEPALALLGLGAPPAREAEAEAALFFSGNALLPGAEPAAHCYCGHQFGQFAGQLGDGAAMYLGEVCTATGERWELQLKGAGPTPFSRQADGRKVLRSSIREFLCSEAMFHLGVPTTRAGACVTSESTVVRDVFYDGNPKYEQCTVVLRVASTFIRFGSFEIFKSADEHTGRAGPSVGRNDIRVQLLDYVISSFYPEIQAAHASDSVQRNAAFFREVTRRTARMVAEWQCVGFCHGVLNTDNMSILGLTIDYGPFGFLDRYDPDHVCNASDNTGRYAYSKQPEVCRWNLRKLAEALQPELPLELGEAILAEEFDAEFQRHYLQKMRRKLGLVQVELEEDGALVSKLLETMHLTGADFTNTFYLLSSFPVELESPGLAEFLARLMEQCASLEELRLAFRPQMDPRQLSMMLMLAQSNPQLFALMGTRAGIARELERVEQQSRLEQLSAAELQSRNQGHWADWLQAYRARLDKDLEGAGDAAAWQAEHVRVMHANNPKYVLRNYIAQNAIEAAERGDFSEVRRVLKLLETPYHCEAGAATDAEATEADGADGRQRSYSSKPPLWAAELCVTUSS [SELO] | -0.0646 | 47.8 °C | 49.1 °C | -0.115 | 3 | 3.57 |
| MAAPRPPPARLSGVMVPAPIQDLEALRALTALFKEQRNRETAPRTIFQRVLDILKKSSHAVELACRDPSQVENLASSLQLITECFRCLRNACIECSVNQNSIRNLDTIGVAVDLILLFRELRVEQESLLTAFRCGLQFLGNIASRNEDSQSIVWVHAFPELFLSCLNHPDKKIVAYSSMILFTSLNHERMKELEENLNIAIDVIDAYQKHPESEWPFLIITDLFLKSPELVQAMFPKLNNQERVTLLDLMIAKITSDEPLTKDDIPVFLRHAELIASTFVDQCKTVLKLASEEPPDDEEALATIRLLDVLCEMTVNTELLGYLQVFPGLLERVIDLLRVIHVAGKETTNIFSNCGCVRAEGDISNVANGFKSHLIRLIGNLCYKNKDNQDKVNELDGIPLILDNCNISDSNPFLTQWVIYAIRNLTEDNSQNQDLIAKMEEQGLADASLLKKVGFEVEKKGEKLILKSTRDTPKP [ATXN10] | 0.202 | 51.9 °C | 51.1 °C | -0.135 | 0.984 | 1.43 |

From the supplement of paper PMC5998384
